{
  "source": "patent US11939397B2",
  "about": "“ENTPD2 antibodies, combination therapies, and methods of using the antibodies and combination therapies” (Novartis AG, priority 2018, dated 2024)",
  "molecules": {"B1": {"name": "mAb13: anti-mouse ENTPD2 monoclonal antibody, VH SEQ ID NO: 191, VL SEQ ID NO: 202 (antibody, V domains shown)", "VH": "QVQLVQSGAELKQPGQSVKISCKASGYTFTHYGMNWVKQAPGQGLKWMGWINTDTGNPTYADDFKGRFVFSLDTSVSTAYLQISNLKNEDTATYYCVRYGTLYSGYGFFFDSWGQGTLVTVSS", "VL": "DIMMTQSPSSLSVSAGEKATITCKSSQSLFNSNTNKNYLNWYLQKPGQSPKLLFYYASTRHTGVPDRFIGSGSGTDFTLTITSVQDEDLADYYCQQWYSYPWTFGPGTKLEIK"}},
  "key": {"[1]": {"tested_on": "B16F10 tumor", "experiment": "Syngeneic B16F10 tumor model, tumor growth and tumor T cell influx", "type": "in vivo, C57BL/6 mice", "experimental": "B16F10 model was established in female C57BL/6 mice by subcutaneous injection of 0.5×10^6 cells into the right flank of each mouse. On day 7 once tumors reached approximately 30 mm^3, mice were randomized according to tumor volume into treatment groups (n=10 per group). Mice received treatment of either anti-mouse ENTPD2 mAb13 at a final dose 15 mg/kg, anti-PD-1 Ab (clone RMP1-14 Bio X Cell, West Lebanon, NH) i.p. at a final dose of 10 mg/kg or the combination of both treatments on days 1, 5, and 8. All doses were adjusted to individual mouse body weights.\nIn order to understand the impact of treatments on the tumor microenvironment, mice were euthanized on day 8 and tumors were dissociated in HyClone RPMI1640 media (GE Healthcare, Pittsburgh, PA) using gentleMacs C-tubes (Miltenyi Biotec, Auburn, CA) on the gentleMacs Octo Dissociator (Miltenyi Biotec, Auburn, CA). Approximately 2×10^6 dissociated tumor cells were blocked with rat anti-mouse CD16/CD32 Ab (Biolegend, San Diego, CA) to reduce non-specific FcyRIII/II binding and subsequently stained with the following cocktail of Abs: rat anti-mouse CD45-BUV395 (clone 30-F11) (BD Biosciences, San Jose, CA), rat anti-mouse CD8a-BUV737 (clone 53-6.7) (BD Biosciences, San Jose, CA), rat anti-mouse CD4-BV510 (clone RM4-5) (BD Bioscience, San Jose CA), anti-mouse CD69-PercPCy5.5 (clone H1-2F3) (Biolegend, San Diego, CA) and rat anti-mouse CD25-eFluor450 (clone eBio3C7) (eBioscience, San Diego, CA) at the manufacturers' recommended dilutions. All incubations and washes were performed in FACS Buffer composed of 1× HyClone Phosphate Buffered Saline (GE Healthcare, Pittsburgh, PA), 1% HyClone Fetal Bovine Serum (GE Healthcare, Pittsburgh, PA), 2 mM EDTA (ThermoFisher, Waltham MA). After staining with the cell surface antigen antibody cocktail, dissociated tumor cells were washed in FACS buffer, fixed and permeabilized using the eBioscience Foxp3/Transcription Factor Staining Buffer Kit (ThermoFisher, Waltham MA) to allow for intracellular staining with the mouse anti-mouse FOXP3-eFluor660 (clone 150D/E4) (eBioscience, San Diego, CA)."}, "[2]": {"target": "T1, ENTPD2 (Homo sapiens, UniProt Q9Y5L3)", "T1 sequence (Q9Y5L3 1-495)": "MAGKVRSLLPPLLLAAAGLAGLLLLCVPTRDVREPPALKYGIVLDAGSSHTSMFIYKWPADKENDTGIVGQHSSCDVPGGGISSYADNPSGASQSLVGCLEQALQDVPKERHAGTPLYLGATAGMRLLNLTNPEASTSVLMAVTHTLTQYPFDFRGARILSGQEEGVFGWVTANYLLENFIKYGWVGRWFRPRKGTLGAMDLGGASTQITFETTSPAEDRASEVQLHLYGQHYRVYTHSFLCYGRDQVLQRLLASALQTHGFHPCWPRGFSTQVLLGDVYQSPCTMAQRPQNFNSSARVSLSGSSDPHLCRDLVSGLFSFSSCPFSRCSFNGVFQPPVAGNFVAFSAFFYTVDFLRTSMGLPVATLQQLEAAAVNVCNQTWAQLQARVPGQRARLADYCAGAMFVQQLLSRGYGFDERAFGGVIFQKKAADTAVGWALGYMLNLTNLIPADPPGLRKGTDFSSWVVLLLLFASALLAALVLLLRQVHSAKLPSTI", "experiment": "FACS binding to human ENTPD2 expressing cells (NIH/3T3)", "set-up": "expressed in transfected cells", "excerpt": "Ten days after fusion, hybridoma plates were screened for the presence of ENTPD2-specific antibodies using flow cytometry to confirm specific binding of candidate antibodies to cell surface-expressed human ENTPD2 using three cell lines: parental NIH/3T3 cells, NIH/3T3 cells stably overexpressing human ENTPD2, and RKO cells (ATCC®), which expresses endogenous human ENTPD2. Cells were rinsed thoroughly with PBS, treated with Accutase (Millipore #SCR005) to lift them from the growth plates, and resuspended in cold PBS. Cells were biotinylated and labeled with a fluorescent dye according to manufacturer's instructions (FluoReporter™ Cell-Surface Biotinylation Kit, Thermo Fisher Scientific Cat #F-20650; PE-Cy7 Steptavidin, ThermoFisher Scientific Cat #SA1012). Cells were resuspended at approximately 1×10^6 cells/ml in FACS buffer (PBS with 2% FBS+0.1% NaN3). In a 384-well plate, 20 μL of hybridoma supernatant was pre-seeded and 20 μL of cell suspension was added. […] Geometric mean fluorescence intensity was calculated on live single cells using FlowJo™ software.\nFACS screening: Specific binding of candidate antibodies to endogenously expressed ENTPD2 was assessed by flow cytometry. […] Geometric mean fluorescence intensity was calculated on live single cells using FlowJo software."}, "[3]": {"settings": "mAb13 and anti-PD-1 Ab combination, day 8"}},
  "data": [
    {"molecule": "B1", "values": [
      {"measurement": "tumor growth relative to No Treatment control, combination", "setting": "[1]; mAb13 15 mg/kg in combination with anti-PD-1 Ab 10 mg/kg, days 1, 5, 8", "result": "significant reduction in tumor growth"},
      {"measurement": "anti-tumor efficacy, treatment alone", "setting": "[1]; mAb13 15 mg/kg or anti-PD-1 Ab 10 mg/kg i.p. alone, days 1, 5, 8", "result": "No significant anti-tumor efficacy"},
      {"measurement": "activated CD4 T-helper cells (CD45+ CD8− CD4+ FOXP3− CD69+ CD25+) in tumor, increase vs No Treatment", "setting": "[1]; [3]", "result": 7.0, "unit": "fold"},
      {"measurement": "activated CD8 T cells (CD45+ CD4− CD8+ CD69+ CD25+) in tumor, change vs No Treatment", "setting": "[1]; [3]", "result": 5.8, "unit": "fold"},
      {"measurement": "binding to human ENTPD2", "setting": "[2]", "result": "no binding"}
    ]}
  ]
}
